US20090274696A1, “METHODS FOR TREATING INFLAMMATION” (WYETH, priority 2008, published 2009)

Tests used:
[1] = system: BAL cells; experiment: Counts of BAL cells in intranasally challenged mice; format: in vivo, mouse; conditions: intranasal once a day×5 days, 100 nM rFIZZ1 or 0.1 ng/ml LPS; vs PBS-treated mice
Experimental: For some experiments, ex vivo TSM tensions of fresh tracheal rings and BAL cell counts were measured at 24 hours after the last treatment of mice receiving an intranasal dose of either PBS, 0.1 ng/m: LPS or 100 nM rFIZZ1 (once a day×5 days).
PBS- and OA-treated mice were sacrificed and their airways lavaged once with 1.0 mL of PBS via tracheal cannulation. An equal volume of BAL from each mouse was collected and centrifuged (1200 rpm, 5 min). Total BAL cells were counted using a hemocytometer. BAL cells ([…]) collected from each sample were applied to a glass slide using a cytospin (800 rpm, 8 min) and then the slide was stained with Hema 3 Stain Set (Fisher Scientific) for the differential count of cells. The relative proportion of different cells counted from 300 cells/slide was factored to the number of total BAL cells collected in each group.

[2] = system: MLCK, MLC-20, α-actin, G proteins, c-Raf/ERK1/2/p38 MAPK in trachea; experiment: Western blot of protein expression in treated trachea; format: cell-based, mouse
Experimental: PBS- and FIZZ1-treated trachea were cultured in DMEM overnight for Western blot analysis. Treated and untreated trachea were harvested and homogenized separately in lysis buffer containing 20 mM […], 2.0 mM EGTA, 5.0 mM EDTA, 30 mM sodium fluoride, 40 mM β-glycerophosphate, 20 mM sodium orthovanadate, 1.0 mM phenylmethylsulfonyl-fluoride, 3.0 mM benzamidine, 5 μM pepstatin A, 10 μM leupeptin and 0.5% Triton X-100 at pH 7.2 (KINEXUS, Canada). Tissue supernatants were centrifuged (15,000×g) for 60 min at 4° C. and protein concentrations in the cleared supernatant of homogenized trachea and BAL were examined by bicinchoninic acid assay (BCA) (Pierce Biotechnology, Rockford, Ill.). Absorbance of total protein from each group was measured spectrophotometrically at an optical density of 562 nm and different concentrations of bovine serum albumin (BSA) were applied as a standard curve. Proteins concentrations (μg/ml) were quantified with the standard curve of BSA using BCA assay. Samples were stored at −70° C. until use.
Protein expression levels of were examined using Western blot analysis. Briefly, aliquots (100 μg/well) of BAL supernatant and tracheal lysate were loaded onto 4-20% SDS-PAGE gel in an equal volume. Size-fractionated proteins were transferred to nitrocellulose membrane and then blocked with 5% nonfat dried milk in TBS at room temperature for 60 min. The membrane was individually incubated with primary antibodies to either FIZZ1 (Rabbit anti-mouse FIZZ1, Antigenix America Inc., USA), MLCK, MLC-20, α-actin, Giα1,2, Ggα11, β-actin (Sigma, USA), Gα12/13 (Santa Cruz Biotechnology, Inc., USA), c-Raf, phospho-c-Raf, ERK1/2, phospho-ERK1/2, p38 MAPK or phospho-p38 MAPK (Cell Signaling, Inc., USA) at 4° C. overnight, washed three times with TBS and then incubated with peroxidase-conjugated secondary antibodies for another 60 min. The blot was washed 3 times with TBS and a mixture of Western Blotting Detection Reagent I and II (GE Healthcare Life Sciences, Piscataway, N.J.) was poured on the membrane with gentle agitation for 1 min at room temperature. Immunoreactive bands were detected by chemiluminesence. Protein expression levels were evaluated in relative to expression of β-actin in the same tissue. Quantification of Western blots for phosphorylated signaling proteins was performed using ImageJ and relative band intensity was calculated as % of the intensity of the β-actin protein band.

[3] = system: mouse tracheal epithelium cells (MTEC); experiment: MTEC apoptosis, Cell Death Detection ELISAplus; format: cell-based
Experimental: MTEC culture was performed by following the protocol of You et al. (“Growth and differentiation of mouse tracheal epithelial cells: selection of a proliferative population,” Am J Physiol Lung Cell Mol Physiol, 2002, 283:L 1315-1321) with minor modification. Briefly, tracheas were incubated in 1.5 mg/mL pronase (Roche Molecular Biochemicals) for 18 h at 4° C. Cells were treated with 0.5 mg/mL crude pancreatic DNase I (Sigma-Aldrich) on ice for 5 min. After incubation in tissue culture plates for 3-4 h in 5% CO2 at 37° C., nonadherent cells were incubated in a plate coated with type I rat tail collagen (BD Biosciences) in modified BEBM (Lonza, Md. USA) containing 10 μg/ml insulin, 5 μg/ml transferrin, 25 ng/ml epidermal growth factor, 5 μg/ml epinephrine and 30 μg/ml bovine pituitary extract, 0.5 nM Hydrocortisone, 25 ng/ml hEGF, 15 nM Triiodothyronine, 0.25 μg/ml Gentamicin/amphotericin-B and 0.01 μM retinoic acid in 5% CO2 at 37° C. […]
Apoptotic MTEC death was examined using Cell Death Detection ELISAplus (Roche) according to the manufacturer's instructions and calculated as an index of a fold change over a control. […] Quantitation of histone-associated-DNA-fragments in supernatants of MTEC cultures (5×10^4/mL) treated with PBS, 0.1 ng/mL LPS or 100 nM rFIZZ1 was performed at an absorbance of 405-490 nm.

[4] = 24 hours after rFIZZ1 treatment vs PBS, n=3
[5] = FIZZ1-treated vs PBS-treated trachea, relative to β-actin

B1: rFIZZ1: recombinant FIZZ1 (Leinco Technologies), mouse FIZZ1 protein, resistin-like molecule-α (protein, listed as Mus musculus)
chain: MKTTTCSLLICISLLQLMVPVNTDETIEIIVENKVKELLANIPANYPSTVTKTLSCTSVKTMNRWASCPAGMTATGCACGFACGSWEIQSGDTCNCLCLLV
modifications: (1)..(101) Murine FIZZ1 polypeptide
In the case of B1, the “number of BAL cells” value [1] is reported as “increase”, the “protein expression levels for α-actin and G proteins (Giα1,2, Gqα11, Gα12/13)” value ([2]; 100 nM rFIZZ1- vs PBS-treated trachea, normalized to β-actin) is reported as “similar” and the “level of phosphorylation of c-Raf, ERK1/2 and p38 MAPK, kinetic profile” value ([2]; 100 nM rFIZZ1, greatly increasing only between 16 and 32 hours) is reported as “marked time-dependent increase”. For the same molecule, the “expression of phospho-ERK1/2” value [2, 4] was “increased”, the “expression of phospho-c-Raf” value [2, 4] was “increased” and the “expression of phospho-p38 MAPK” value [2, 4] was “increased”. The “expression of unphosphorylated c-Raf” value ([2]; 24 hours, FIZZ1 vs PBS-cultured trachea) was “slightly increased”, the “expression of MLC-20” value [2, 5] was “increase” and the “expression of MLCK” value [2, 5] was “increase”. The “MTEC apoptosis (apoptosis index)” value ([3]; 100 nM rFIZZ1, all time points, compared to LPS treatment, N=3) was “significant increased” and the “start of increase in cell death, time of incubation” value ([3]; FIZZ1-treated MTEC) was 3 h.
